This note sets out measurements from US20190016771A1 (Hoffmann-La Roche, published 2019).

The term EC50 denotes the concentration needed to bring the measured effect to its halfway point.

Test [1] addresses T1, human fibroblast activation protein (FAP) on the cell surface (human, UniProt Q12884 1-760).
T1 construct: also called huFAP; NIH/3T3-huFAP clone 39 cells
T1 sequence: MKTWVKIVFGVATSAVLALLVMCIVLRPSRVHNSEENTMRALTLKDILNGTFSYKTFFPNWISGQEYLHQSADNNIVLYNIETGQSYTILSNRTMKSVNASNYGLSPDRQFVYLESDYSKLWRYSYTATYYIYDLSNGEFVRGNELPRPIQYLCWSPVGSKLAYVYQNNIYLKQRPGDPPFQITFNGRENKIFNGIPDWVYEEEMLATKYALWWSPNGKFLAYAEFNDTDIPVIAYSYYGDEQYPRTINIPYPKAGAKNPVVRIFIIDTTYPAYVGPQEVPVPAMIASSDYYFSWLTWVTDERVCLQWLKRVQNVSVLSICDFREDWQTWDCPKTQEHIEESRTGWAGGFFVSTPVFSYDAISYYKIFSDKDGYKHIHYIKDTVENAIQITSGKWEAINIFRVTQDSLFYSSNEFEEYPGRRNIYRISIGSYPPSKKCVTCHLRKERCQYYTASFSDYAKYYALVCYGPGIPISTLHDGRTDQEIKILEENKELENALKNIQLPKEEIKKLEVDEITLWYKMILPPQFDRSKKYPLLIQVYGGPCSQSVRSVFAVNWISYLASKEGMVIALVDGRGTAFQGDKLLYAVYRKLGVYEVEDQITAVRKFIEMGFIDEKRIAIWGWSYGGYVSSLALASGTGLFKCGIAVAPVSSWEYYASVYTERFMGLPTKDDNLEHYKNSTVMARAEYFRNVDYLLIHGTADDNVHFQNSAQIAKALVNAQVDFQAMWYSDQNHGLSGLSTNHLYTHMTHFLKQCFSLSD
Description: flow cytometry on WM-266-4 cells, FITC anti-human IgG F(ab')2 detection. As to the method: Cells were stained for 120 minutes at 4° C. in the dark in 50 μL/well 4° C. cold FACS buffer (DPBS (Gibco by Life Technologies, Cat. No. 14190 326) w/ BSA (0.1% v/w, Sigma-Aldrich, Cat. No. A9418) containing titrated huCMP trimeric OX40 ligand-containing antigen binding molecules. After three times washing with excess FACS buffer, cells were stained for 60 minutes at 4° C. in the dark in 25 μL/well 4° C. cold FACS buffer containing Fluorescein isothiocyanate (FITC)-conjugated AffiniPure anti-human IgG F(ab′)₂-fragment-specific goat IgG F(ab′)₂ fragment (Jackson ImmunoResearch, Cat.-No. 109-096-097).
Plates were finally resuspended in 90 μL/well FACS-buffer containing 0.2 μg/mL DAPI (Santa Cruz Biotec, Cat. No. Sc-3598) and acquired the same day using 5-laser LSR-Fortessa (BD Bioscience with DIVA software).

The target of test [2] is T2, human OX40 (CD134) on the cell surface (human, UniProt P43489 29-277).
T2 construct: whole, on cells; also called hOx40
T2 sequence (looked up): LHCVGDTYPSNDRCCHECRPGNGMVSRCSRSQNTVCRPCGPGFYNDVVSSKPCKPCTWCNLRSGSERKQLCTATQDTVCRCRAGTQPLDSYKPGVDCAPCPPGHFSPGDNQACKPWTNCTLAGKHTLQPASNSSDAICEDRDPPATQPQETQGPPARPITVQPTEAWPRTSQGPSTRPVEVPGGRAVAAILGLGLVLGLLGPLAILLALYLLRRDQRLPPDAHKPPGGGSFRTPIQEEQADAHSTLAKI
Description: flow cytometry on activated human CD4+ T cells (OX40 positive); activated OX40 positive CD4+ T cells. On the procedure:
(§1) PBMCs were used directly after isolation (binding on resting human PBMCs) or they were stimulated to receive a strong human Ox40 expression on the cell surface of T cells (binding on activated human PBMCs). Therefore naïve PBMCs were cultured for three days in T cell medium supplied with 200 U/mL Proleukin (Novartis) and […] PHA-L (Sigma-Aldrich, L2769-10) in 6-well tissue culture plate at 37° C. and 5% CO₂.
(§2) Cells were stained for 120 minutes at 4° C. in the dark in 50 μL/well 4° C. cold FACS buffer containing titrated anti-Ox40 antibody constructs. After three times washing with excess FACS buffer, cells were stained for 1 h at 4° C. in the dark in 25 μL/well 4° C. cold FACS buffer containing a mixture of fluorescently labeled anti-human CD4 (clone OKT4, mouse IgG1 k, BioLegend, Cat.-No. 317428), anti-human CD8 (clone RPa-T8, mouse IgG1k, BD Pharmingen, Cat.-No. 555368) and Fluorescein isothiocyanate (FITC)-conjugated AffiniPure anti-human IgG F(ab′)2-fragment-specific goat IgG F(ab′)₂ fragment (Jackson ImmunoResearch, Cat.-No. 109-096-097). Plates were finally resuspended in 90 μL/well FACS-buffer containing 0.2 μg/mL DAPI (Santa Cruz Biotec, Cat. No. Sc-3598) and acquired the same day using 5-laser LSR-Fortessa (BD Bioscience with DIVA software).
A general note: A flow cytometer gives signals particle by particle.

Test [3] has as its target T2, human OX40 (CD134) on the cell surface. Briefly: flow cytometry on activated human CD8+ T cells (OX40 positive); activated OX40 positive CD8+ T cells. As to the method:
as §1, §2

B1: FAP(28H1)-targeted human CMP trimeric OX40L-containing antigen binding molecule (other)
chain: EVQLLESGGGLVQPGGSLRLSCAASGFTFSSHAMSWVRQAPGKGLEWVSAIWASGEQYYADSVKGRFTISRDNSKNTLYLQMNSLRAEDTAVYYCAKGWLGNFDYWGQGTLVTVSSASTKGPSVFPLAPSSKSTSGGTAALGCLVKDYFPEPVTVSWNSGALTSGVHTFPAVLQSSGLYSLSSVVTVPSSSLGTQTYICNVNHKPSNTKVDKKVEPKSCDGGGGSGGGGSEEDPCACESLVKFQAKVEGLLQALTRKLEAVSKRLAILENTVVSGGGGSGGGGSGGGGSGGGGSQVSHRYPRIQSIKVQFTEYKKEKGFILTSQKEDEIMKVQDNSVIINCDGFYLISLKGYFSQEVDISLHYQKDEEPLFQLKKVRSVNSLMVASLTYKDKVYLNVTTDNTSLDDFHVNGGELILIHQNPGEFCVL
light: EIVLTQSPGTLSLSPGERATLSCRASQSVSRSYLAWYQQKPGQAPRLLIIGASTRATGIPDRFSGSGSGTDFTLTISRLEPEDFAVYYCQQGQVIPPTFGQGTKVEIKRTVAAPSVFIFPPSDEQLKSGTASVVCLLNNFYPREAKVQWKVDNALQSGNSQESVTEQDSKDSTYSLSSTLTLSKADYEKHKVYACEVTHQGLSSPVTKSFNRGEC
notes: also called trimeric FAP-huCMP-OX40L
Regarding B1, the EC50 in test [1] is 17.3 nM; in test [2] it was 10.2 nM; in test [3], 3 nM.
